Nine proteins from the PETadex activity labels (doi:10.1021/bi00096a018) can be followed below.

Substrate in this series: Acetylcholine
The note with it: pH 7; 22 °C.

Where a chain is given by its changes, count along the chain named.

B1: unnamed (protein)
chain: MRPPWYPLHTPSLAFPLLFLLLSLLGGGARAEGREDPQLLVRVRGGQLRGIRLKAPGGPVSAFLGIPFAEPPVGSRRFMPPEPKRPWSGVLDATTFQNVCYQYVDTLYPGFEGTEMWNPNRELSEDCLYLNVWTPYPRPASPTPVLIWIYGGGFYSGAASLDVYDGRFLAQVEGAVLVSMNYRVGTFGFLALPGSREAPGNVGLLDQRLALQWVQENIAAFGGDPMSVTLFGESAGAASVGMHILSLPSRSLFHRAVLQSGTPNGPWATVSAGEARRRATLLARLVGCPPGGAGGNDTELIACLRTRPAQDLVDHEWHVLPQESIFRFSFVPVVDGDFLSDTPEALINTGDFQDLQVLVGVVKDEGSAFLVYGVPGFSKDNESLISRAQFLAGVRIGVPQASDLAAEAVVLHYTDWLHPEDPTHLRDAMSAVVGDHNVVCPVAQLAGRLAAQGARVYAYIFEHRASTLTWPLWMGVPHGYEIEFIFGLPLDPSLNYTTEERIFAQRLMKYWTNFARTGDPNDPRDSKSPQWPPYTTAAQQYVSLNLKPLEVRRGLRAQTCAFWNRFLPKLLSATDTLDEAERQWKAEFHRWSSYMVHWKNQFDHYSKQERCSDL
As to B1, the Km – broadly, the substrate concentration at which the rate is half of its maximum – came to 110 µM and the kcat (in general, the maximal rate divided by the concentration of active sites) was 867 s⁻¹.

B2: unnamed (protein)
chain: B1 chain with Y103N, Y155Q, W317A, A368Y
In the case of B2, the Km was determined as 230 µM and the kcat is 2500 s⁻¹.

B3: unnamed (protein)
chain: B1 chain with R327S, A368Y
In the case of B3, the Km worked out at 50 µM and the kcat was 1530 s⁻¹.

B4: unnamed (protein)
chain: B1 chain with D105N, A368Y
Take B4: the Km was 1300 µM and the kcat came to 1400 s⁻¹.

B5: unnamed (protein)
chain: B1 chain with F326Y, A368Y
For B5, the Km was determined as 17 µM and the kcat came to 102 s⁻¹.

B6: unnamed (protein)
chain: B1 chain with A368Y
With B6, the Km was found to be 451000 µM, the kcat stood at 667 s⁻¹ and the kcat/Km (commonly the second-order rate constant that governs catalysis at low substrate concentration) stood at 1480 M⁻¹ s⁻¹.

B7: unnamed (protein)
chain: B1 chain with F328I, A368Y
Turning to B7, the Michaelis-Menten constant (Km) was 357000 µM, the kcat came to 250 s⁻¹ and the kcat/Km came out at 700 M⁻¹ s⁻¹.

B8: unnamed (protein)
chain: B1 chain with F326L, F328I, A368Y
As to B8, the Km came out at 200 µM and the kcat is 200 s⁻¹.

B9: unnamed (protein)
chain: B1 chain with Y103N, D105N, Y155Q, W317A, A368Y
B9: the Michaelis-Menten constant (Km) was found to be 2100 µM and the kcat was 2500 s⁻¹.
